The results in this text go back to US20240042018A1 (University of Washington, published 2024).

Assay [1] concerns the target T1, H1MI15-I53_dn5B trimer (A/Michigan/45/2015 HA 1-676 Y98F no lkr dn5B.SA.WELQ-H) (influenza A virus H1/A/Michigan/45/2015 …). In words: in vitro nanoparticle assembly; SEC, DLS, nsTEM.
The target in assay [2] is T1, H1MI15-I53_dn5B trimer …. In words: in vitro nanoparticle assembly.
The target in assay [3] is T1, H1MI15-I53_dn5B trimer …. Briefly: in vitro nanoparticle assembly, SEC.
Assay [4] concerns the target T1, H1MI15-I53_dn5B trimer …. Briefly: in vitro nanoparticle assembly, SEC and SDS-PAGE.

B1: I53_dn5Acp7 PAS pentamer (designed binder)
chain: MGSHHHHHHGSDEQAEERAGTKAGNHGEDWGAAAVEMATKFNGSGGSGKYDGSKLRIGILHARGNAEIILELVLGALKRLQEFGVKRENIIIETVPGSFELPYGSKLFVEKQKRLGKPLDAIIPIGVLIRGSTAHFDYIADSTTHQLMKLNFELGIPVIFGVLTTESGGSASPAAPAPASPAAPAPSAPAAASPAAPAPASPAAPAPSAPAAASPAAPAPASPAAPAPSAPAA
On to B1, for which the binding result in assay [1] is given as “binds”.

B2: I53_dn5A_2gly pentamer (designed binder)
chain: KYDGSKLRIGILHARGNAEIILELVLGALKRLQEFGVKRENIIIETVPGSFELPYGSKLFVEKQKRLGKPLDAIIPIGVLIRGNDTHFDYIADSTTHQLMKLNFELGIPVIFGVLTTNSTEQAEERAGTKAGNHGEDWGAAAVEMATKFNLEEQKLISEEDLHHHHHH
Consider B2, for which the binding result in assay [2] was “binds”.

B3: I53_dn5A_1C5kPEG pentamer (designed binder)
chain: MGKYDGSKLRIGILHARGNAEIILALVLGALKRLQEFGVKRENIIIETVPGSFELPYGSKLFVEKQKRLGKPLDAIIPIGVLIRGSTPHFDYIADSTTHQLMKLNFELGIPVIFGVITADTCEQAEARAGLIEGKMHNHGEDWGAAAVEMATKFNGGWELQLEGSHHHHHH
Regarding B3, the binding result in assay [3] is “binds”.

B4: I53_dn5A_D120C pentamer coupled to 1 kDa PEG (designed binder)
chain: MGKYDGSKLRIGILHARGNAEIILALVLGALKRLQEFGVKRENIIIETVPGSFELPYGSKLFVEKQKRLGKPLDAIIPIGVLIRGSTPHFDYIADSTTHQLMKLNFELGIPVIFGVITADTCEQAEARAGLIEGKMHNHGEDWGAAAVEMATKFNGGWELQLEGSHHHHHH
B4: the binding result in assay [4] is “binds”.

B5: I53_dn5A_D120C pentamer coupled to 2 kDa PEG (designed binder)
chain: MGKYDGSKLRIGILHARGNAEIILALVLGALKRLQEFGVKRENIIIETVPGSFELPYGSKLFVEKQKRLGKPLDAIIPIGVLIRGSTPHFDYIADSTTHQLMKLNFELGIPVIFGVITADTCEQAEARAGLIEGKMHNHGEDWGAAAVEMATKFNGGWELQLEGSHHHHHH
As for B5, the binding result in assay [4] is “binds”.

B6: I53_dn5A_S84C_D120C pentamer coupled to 1 kDa PEG (designed binder)
chain: MGKYDGSKLRIGILHARGNAEIILALVLGALKRLQEFGVKRENIIIETVPGSFELPYGSKLFVEKQKRLGKPLDAIIPIGVLIRGCTPHFDYIADSTTHQLMKLNFELGIPVIFGVITADTCEQAEARAGLIEGKMHNHGEDWGAAAVEMATKFNGGWELQLEGSHHHHHH
B6: the binding result in assay [1] is given as “binds”.

B7: I53_dn5A_2C2kPEG pentamer (designed binder)
chain: MGKYDGSKLRIGILHARGNAEIILALVLGALKRLQEFGVKRENIIIETVPGSFELPYGSKLFVEKQKRLGKPLDAIIPIGVLIRGCTPHFDYIADSTTHQLMKLNFELGIPVIFGVITADTCEQAEARAGLIEGKMHNHGEDWGAAAVEMATKFNGGWELQLEGSHHHHHH
Regarding B7, the binding result in assay [1] is listed as “binds”.
